# Source: the RNAGym collection of RNA variant scans (doi:10.1021/acssynbio.7b00057)
# B1: Pistol ribozyme (parent)
# chain: GGGUCGUUGUUCCAUAAUCGCGUGGAUAUGGCACGCAAGUUUCUACCGGGCACCGUAAAUGUCCGACUGGAGCCGUUCGGGCGGCUAUAAACAGACCUCAGGCCCGAAGCGUGGCGGCACCUGCCGCCGGUGGUAAAAAAGAUCGGAAGAGCACACGUCU
# Variants of: B1
# Assay: aptazyme ON/OFF ratio, guanine; higher = stronger switching; co-transcriptional cleavage with and without guanine
row,Variant,aptazyme ON/OFF ratio
1,U7A U11A C12G C13A,1.08
2,U7G U8A G9A U11G C12U,1.44
3,U7G G9A U10A U11C C12U C13U,1.2
4,U7G U8A G9U U11C C12A,1.16
5,U7A U8G G9U U10C U11G,1.71
6,U7C U8C G9U U11G,1.16
7,U7C U8G G9U C12A C13A,1.42
8,U7A U8G G9U U10A U11G C12A,1.06
9,U7A U8G G9U U10A C12A C13U,1.36
10,U7A U8A G9U U10G U11G C12A C13G,1.2
11,U7C G9A U10A U11A C12G C13G,1.22
12,U7C U8A U10C C12G C13G,1.16
13,U7G U8G G9A U11C C13G,1.12
14,U8A G9U U10A U11A C12G C13A,1.27
15,U7G G9C U11C C12U,2.15
16,U8G G9C C12U C13G,1.04
17,U7G U8A G9A U10A U11C,1.03
18,U7A G9C U11A,1.11
19,U7G U8G G9A U10C U11A C13G,1.1
20,U7A G9C U10G U11C C12U,1.04
21,U7A G9C U10G U11C C12G,1.08
22,U7A U8G U10A,2.44
23,U7A G9A U11G C13G,1.12
24,U7A U8C G9A U11C C13G,1.08

row,Variant,aptazyme ON/OFF ratio
1,U7C U8C G9C U10A U11G C12A C13U,1.14
2,U7G U8A G9U C13A,1.08
3,U8C U10A C13U,1.05
4,U7G U8G U10C U11C C12G C13A,1.24
5,U7A G9A U10A U11G C13U,1.12
6,G9A U10C U11G,1.86
7,U7G U8G G9A U10G C12A C13U,1.32
8,U7A U8C G9U U10G U11C C13U,1.03
9,U7C U8C G9U U10A U11C C12G C13G,1.19
10,U7G U8C G9A U10C C12U,1.37
11,U8G G9U U10C U11A C12A C13A,1.07
12,U7C U8A G9A U10C U11A C12G,1.14
13,U10A U11C C13U,1.01
14,U7A U8C G9U U10C U11A C12A C13U,1.12
15,U7G U8A U10A U11C C12A C13A,1.26
16,U7A U8G G9C U10C U11C C13G,1.02
17,U8A U10A U11A C12A C13A,1.21
18,U7A U8A G9A U10A U11C C12G,1.17
19,U7C U8G G9A U10C U11C C12A C13U,1.06
20,U7G U8A G9U U10A U11A C12U,1.09
21,U7C U8C G9A U10G U11A C12A C13U,1.16
22,U7C U8A G9A U10C C12G,1.2
23,U8C G9C U10G C13U,1.11
24,U7A U8A G9U U10A U11C C12U,1.1

row,Variant,aptazyme ON/OFF ratio
1,G9A U11A C12G,1.51
2,U7A U8G G9C U10A C13A,1.19
3,U7C U8G G9U U10C U11C C13G,1.05
4,U7G U8A G9U C12A,1.06
5,G9A U10G U11G C12A C13U,1.25
6,U8G U10G U11C C13U,1.04
7,U7C U10C U11C C12U C13U,1.33
8,U7C U8C U11C,2.42
9,U7C U8G G9C U10G U11A C13U,1.16
10,U7C U8G G9C U10G U11A C12G,1.24
11,G9A U10G U11A C12A,1.17
12,U7G G9A U11C C12U C13A,1.15
13,U7G U8C G9C U10C U11G C13U,1.07
14,U7A U8A U10C U11A C12U C13G,1.1
15,U7G G9U U10C U11G C12U C13U,1.22
16,U7A U8C G9A U10A U11G C13A,1.12
17,U7A U10G U11G C12G C13A,1.11
18,U7A G9A U10A U11C C12U C13U,1.15
19,U7G U8G G9C U10C U11A C12U C13A,1.36
20,U7G U8A G9A U10A U11G C12A,1.06
21,U7G U8A G9A U11G C12U C13U,1.45
22,U7C G9A U10G U11C C12A,1.28
23,U8G U10C C12U C13U,1.17
24,U7A U8A G9A U10A U11C C12G C13U,1.1

row,Variant,aptazyme ON/OFF ratio
1,U7C G9U U10C C13G,1.06
2,U7A U8A G9C U11C C13A,1.08
3,U7C U8C U10C U11G C12G,1.18
4,U7A U8C G9A U10A C12A C13A,1.2
5,U7C U10C U11G,1.21
6,U7A U8A G9C U10G U11G C12A C13A,1.4
7,U7G U8C G9U U10C C12U C13A,1.35
8,U8A G9U U10G U11A C12A,1.21
9,U7A U8C G9A U11A C12A,1.43
10,U8G G9U U10A U11C C13G,1.03
11,G9C U10G C12A C13G,1.11
12,G9U U10C U11A C12U C13A,1.49
13,U7A U8G G9A U10C U11A C12G,1.13
14,U7C U8G U10G U11G C13G,1.28
15,U8C G9U U10C U11A,1.44
16,U7G U8G G9U U10A U11G C12U,1.07
17,U7G U8G G9C U10C U11A C12A C13U,1.12
18,U7A U8A G9U U11C C12G C13G,1.04
19,U7A U8A G9A U10G U11C C13A,1.08
20,U7C U8G U10G U11C C13A,1.24
21,U8A U11A C12U,1.19
22,U7C U8A G9U U10A U11C C12G C13U,1.25
23,U7C G9U U11A C12A C13G,1.1
24,U7A U8C U10C U11G C12G C13A,1.26

row,Variant,aptazyme ON/OFF ratio
1,U7C U8C G9A U10G U11A C12U C13U,1.23
2,G9U U10A U11G C12U C13A,1.21
3,U7A U8A G9U U10C U11A C13G,1.17
4,U7C G9C U10C C12U,1.09
5,U7A U8A G9U U10C C12U C13A,1.19
6,G9A U10A U11G C12U C13A,1.34
7,U7A U8A G9A U10C C12G C13U,1.08
8,U7G U8A C12U C13A,1.43
9,U7G U8A C12U C13G,1.38
10,U7A U8C G9U U10C U11A C12U C13A,1.13
11,U7G U8A G9A U10G U11G C13U,1.26
12,U7A U8A G9U C13A,1.16
13,U7G G9C U11C C12G C13A,1.35
14,U7C U8A G9U U10G U11C C12G C13A,1.22
15,U7G U8G U10A U11G C12G C13A,1.15
16,U7A U8G G9U U10G U11G C12G C13U,0.953
17,U7G U8C G9U U10A C12G,1.77
18,U8A G9U U10A U11C C12G C13G,1.12
19,U7G U8A G9A U11C C13G,1.06
20,U7C U8C G9A U10C U11G C12U,1.21
21,U7C U8C G9C U10A U11A C12U C13A,1.03
22,U7A G9C U10G C12U,1.2
23,U7C G9C U10A C12A C13G,1.09
24,G9A U10A C12G C13G,1.33

row,Variant,aptazyme ON/OFF ratio
1,U7G U8A G9U U10G U11C C12U C13A,1.07
2,U8G U10G U11A C12U C13G,1.22
3,U7A G9C C12G C13G,1.05
4,U7C U8A G9C U10G C12A C13A,1.23
5,U7C U8C U10A U11G C12A C13U,1.12
6,U8C G9C U10A C12G,1.25
7,U8A G9U U11G C12G C13A,1.25
8,U7C G9A U10G U11A C12G C13G,1.31
9,U7C U8A G9U,1.59
10,U7G U8C G9C U10A U11G C12U C13U,1.17
11,U8C U10G U11C C12G C13G,1.17
12,U7A G9C U10A U11G C12G C13G,1.12
13,U7G U8G G9C U10C C12U,1.38
14,U7G U8C G9U U10A U11G C12G C13A,1.13
15,U7C U8C G9C U10G U11G C12U C13U,1.06
16,U7G U8G G9A U10C C12G,1.28
17,U7A U8A G9U U10A U11C C12G C13U,1.18
18,U7A G9C U11G C13A,1.13
19,G9U U10G C12G,1.64
20,U7G U11G C12G C13U,1.04
21,U7G U8G G9A U11G,1.91
22,U7C U8C G9C U10C U11A C12G,1.11
23,U7G U10G U11C C13U,1.13
24,U7A U8C U10A C13U,1.05

row,Variant,aptazyme ON/OFF ratio
1,U7G U8A U10C C13A,1.23
2,U7G G9A U10A C12G C13A,1.09
3,U7G U8G G9C U10G U11C C12A C13A,1.1
4,U8C G9C U10C U11G C12G C13A,1.13
5,U7G U8C G9C U10C U11C C13U,0.999
6,U7C U8A G9U U10C U11A C13G,1.07
7,U7C U8C G9U U10C U11G C12A C13U,1.12
8,U7G U8G G9A U10A C13A,1.28
9,G9U U10G U11A C12U,1.3
10,U7A G9C C13U,1.12
11,U7G U8C G9C U11A C12U C13U,1.22
12,U7G U8A G9A U10A U11A C12A C13A,1.09
13,U8A G9U U10G U11G C12A C13G,1.14
14,U7A U8A G9A U10C,1.52
15,U7A U8C U10A U11A C13A,1.2
16,U7C U8A G9U U10C C13U,1.8
17,U7C U8A G9C U10A U11C C12U C13G,1.1
18,U7G U8C G9U U11C C12U C13U,1.49
19,U7G G9A U10G U11C C12U C13G,1.08
20,U7C U8A G9U U10A C12U C13A,1.24
21,G9A U11C C12G C13U,1.33
22,U7C G9U U10G U11C C12G C13A,1.06
23,U8G G9U C12U C13A,1.22
